Assays:
Assay type in all cases: cell-based, human
U266B1 target cells [1] = test: Cytotoxicity assay with luciferase-expressing target cells and ACTR T-cells
Protocol: (§1) T-cells expressing ACTR variant SEQ ID NO: 1 (effector; E) and target cells (target; T) were incubated at a 4:1, effector-to-target ratio (120,000 T cells; 30,000 target cells) with increasing concentrations of various chimeric anti-BCMA antibodies (FIG. 3, parts A and B), humanized anti-BCMA antibody clones (FIG. 5, parts A and B), or anti-BCMA antibodies derived from the NCI-murine BCMA CAR sequence shown in WO2010104949A2 (FIG. 6, parts A and B) in a 200-μL reaction volume with RPMI 1640 media supplemented with 10% fetal bovine serum. The chimeric and humanized antibodies analyzed included fucosylated and afucosylated (labeled as “SEA”) versions of the SG16.17 and SG16.45 anti-BCMA antibodies. Reactions were incubated in a CO2 (5%) incubator at 37 degrees C. for 24 or 48 hours. An equal volume of Bright-Glo luciferase assay reagent (Promega; Madison, Wis.) was added prior to a 10 minute room temperature incubation. Luminescence was measured using an EnVision Multi-label plate reader (PerkinElmer; Waltham, Mass.). The percentage of live cells was determined by dividing the luminescence signal of a given sample by the luminescence signal in the absence of antibody and multiplying by 100. The percent cytotoxicity was determined by subtracting the percentage of live cells from 100. The percentage of antibody specific cytotoxicity (%) was then plotted as a function of antibody concentration.
(§2) In FIG. 8, T-cells expressing ACTR variant SEQ ID NO: 1 (effector; E) and target cells (target; T) were incubated at a 4:1, effector-to-target ratio (120,000 T cells; 30,000 target cells) with increasing concentrations of humanized afucosylated (SEA) anti-BCMA antibody SG16.17 in a 200-μL reaction volume in RPMI 1640 media supplemented with 10% fetal bovine serum. Target-cell luminescence was measured and percent cytotoxicity was determined as in Example 3.
(§3) T-cells (effector; E) and target cells (target; T) were incubated at varying effector-to-target (E:T) cell ratios in the presence of 10 μg/mL anti-BCMA antibody (FIG. 13), in a 200-μL reaction volume in RPMI 1640 media supplemented with 10% fetal bovine serum. The antibodies included fucosylated and afucosylated (SEA) versions of the two anti-BCMA antibodies (SG16.17 and SG16.45). […] Target cell luminescence was measured and percent cytotoxicity was determined as in Example 3.
(§4) In FIG. 18, T-cells (effector; E) and target cells (target; T) were incubated at a 4:1, effector-to-target ratio (30,000 target cells) with increasing concentration of humanized afucosylated anti-BCMA antibody hSG16.17SEA in a 200-μL reaction volume in RPMI 1640 media supplemented with 10% fetal bovine serum. […] Target cell luminescence was measured and percent cytotoxicity was determined as described in Example 3.

NCI-H929 target cells [2] = test: as above
Protocol: as §1, §2, §3, §4

NCI-H929 target cells [3] = test: Activation markers (CD25, CD69) on ACTR T-cells by flow cytometry; conditions: ACTR variant SEQ ID NO: 1, E:T 1:1, 1 μg/mL antibody, 24 hours
Protocol: T-cells (effector; E) and target cells (target; T) were incubated at a 1:1, effector-to-target ratio (30,000 T cells; 30,000 target cells) with 1 μg/mL of anti-BCMA antibodies in a 200-μL reaction volume in RPMI 1640 media supplemented with 10% fetal bovine serum. Reactions were incubated in a CO2 (5%) incubator at 37 degrees C. for 24 hours. Geometric Mean Fluorescence intensity (gMFI) of two activation markers, CD25 and CD69 were determined in the total CD3+ CD16+ ACTR T-cell gate via flow cytometry. Briefly, cells were washed twice in staining buffer before being stained with a Live/Dead eFluor-450 dye for 30 min at 4 degrees C. After incubating in the live/dead cell stain, cells were washed twice and incubated with 100 μL of an antibody cocktail consisting of AF488-conjugated anti-human CD3 antibody, APC-conjugated anti-human CD16 antibody, PerCP-Cy5.5-conjugated anti-human CD25 antibody, and BV510-conjugated anti-human CD69 antibody. Subsequently, cells were washed twice, fixed, permeabilized, and stained for intracellular molecules prior to detection via flow cytometry. […]
T-cells (effector; E) and NCI-H929 target cells (target; T) were incubated at varying effector-to-target ratios in the presence of 1 μg/mL hSG16.17 SEA antibody. […] The geometric mean fluorescence intensity of CD25 was calculated within the CD3+ T-cell gate and was plotted as a function of E:T ratio (FIG. 17).

U266B1 target cells [4] = test: as above; conditions: ACTR variant SEQ ID NO: 1, E:T 1:1, 1 μg/mL antibody, 24 hours
Protocol: T-cells (effector; E) and target cells (target; T) were incubated at a 1:1, effector-to-target ratio (30,000 T cells; 30,000 target cells) with 1 μg/mL of anti-BCMA antibodies in a 200-μL reaction volume in RPMI 1640 media supplemented with 10% fetal bovine serum. Reactions were incubated in a CO2 (5%) incubator at 37 degrees C. for 24 hours. Geometric Mean Fluorescence intensity (gMFI) of two activation markers, CD25 and CD69 were determined in the total CD3+ CD16+ ACTR T-cell gate via flow cytometry. Briefly, cells were washed twice in staining buffer before being stained with a Live/Dead eFluor-450 dye for 30 min at 4 degrees C. After incubating in the live/dead cell stain, cells were washed twice and incubated with 100 μL of an antibody cocktail consisting of AF488-conjugated anti-human CD3 antibody, APC-conjugated anti-human CD16 antibody, PerCP-Cy5.5-conjugated anti-human CD25 antibody, and BV510-conjugated anti-human CD69 antibody. Subsequently, cells were washed twice, fixed, permeabilized, and stained for intracellular molecules prior to detection via flow cytometry. Flow cytometry gating on CD3+ CD16+ ACTR T-cells was performed after doublet and dead cell exclusion.

[5] = T-cells expressing ACTR variant SEQ ID NO: 1, E:T 4:1, increasing antibody concentrations, 24 or 48 hours

B1: cSG16.45SEA: afucosylated (SEA) version of the chimeric SG16.45 anti-BCMA antibody (antibody, V domains shown)
VH: EVQLVESGGGLVQPGRSLKLSCVASGFTFNDHWMTWIRQAPGRGLEWISSITNTGGATYYLDSVKGRFTISRDNAKSTLYLQMNSLRSEDTATYYCTSPGLYFDYWGQGVMVTVSS
VL: EIVLTQSPTTTAASPGEKVTITCLATSSVSVMYWYQHKSGASPKLLIYSTSSLASGVPDRFSGSGSGTSYSLTINTMEAEDAATYYCHQWSSDPPTFGSGTKLEIKR
cytotoxicity at varying E:T ratios (U266B1 target cells [1]; T-cells expressing ACTR variant SEQ ID NO: 1, 10 μg/mL anti-BCMA antibody, 48 hours): increased potency in comparison to the fucosylated antibodies
antibody specific cytotoxicity (U266B1 target cells [1]; [5]): increased cytotoxicity when compared with the fucosylated antibodies
cytotoxicity at varying E:T ratios (NCI-H929 target cells [2]; T-cells expressing ACTR variant SEQ ID NO: 1, 10 μg/mL anti-BCMA antibody, 24 hours): increased potency in comparison to the fucosylated antibodies
antibody specific cytotoxicity (NCI-H929 target cells [2]; [5]): increased cytotoxicity when compared with the fucosylated antibodies
levels of activation markers CD25 and CD69 (gMFI) on ACTR T-cells (NCI-H929 target cells [3]): enhanced expression of CD25 and CD69 when compared to incubations with their fucosylated counterparts
levels of activation markers CD25 and CD69 (gMFI) on ACTR T-cells (U266B1 target cells [4]): enhanced expression of CD25 and CD69 when compared to incubations with their fucosylated counterparts
